Assays:
[1] = molecular target: T1, human CD71 extracellular domain (human, UniProt P02786 89-760, biotinylated); test: solution ELISA screen, signal ratio to HSA control
T1 construct: extracellular domain; also called hCD71; huCD71 ECD

CD71 apical domain [2] = molecular target: T2, CD71 apical domain (human, UniProt P02786 189-383, limits assumed); test: solution ELISA screen, signal ratio to HSA control
T2 construct: domain: apical domain

[3] = molecular target: T1, human CD71 extracellular domain; test: solution ELISA screen (luminescence)
CD71 apical domain [4] = molecular target: T2, CD71 apical domain; test: solution ELISA screen (luminescence)

T1 sequence (P02786 other isoform, or with tags, fused parts or gaps): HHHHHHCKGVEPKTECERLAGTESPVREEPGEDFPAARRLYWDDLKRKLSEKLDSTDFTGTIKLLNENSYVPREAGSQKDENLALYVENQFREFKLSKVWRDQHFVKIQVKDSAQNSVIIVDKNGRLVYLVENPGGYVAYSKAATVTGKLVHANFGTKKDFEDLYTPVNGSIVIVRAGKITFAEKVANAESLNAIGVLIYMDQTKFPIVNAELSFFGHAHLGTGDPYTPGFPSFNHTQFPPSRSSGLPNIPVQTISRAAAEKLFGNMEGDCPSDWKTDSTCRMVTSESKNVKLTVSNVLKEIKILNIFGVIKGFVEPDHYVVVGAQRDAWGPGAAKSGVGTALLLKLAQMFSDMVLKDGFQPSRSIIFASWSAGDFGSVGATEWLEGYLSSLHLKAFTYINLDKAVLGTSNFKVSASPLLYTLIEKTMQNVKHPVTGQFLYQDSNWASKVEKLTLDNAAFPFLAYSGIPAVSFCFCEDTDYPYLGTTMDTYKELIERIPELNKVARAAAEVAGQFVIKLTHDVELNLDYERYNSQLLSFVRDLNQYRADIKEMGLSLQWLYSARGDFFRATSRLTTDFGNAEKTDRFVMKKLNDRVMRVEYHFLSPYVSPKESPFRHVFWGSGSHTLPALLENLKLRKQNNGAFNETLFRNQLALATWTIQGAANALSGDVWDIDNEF
T2 sequence (P02786 189-383 limits assumed): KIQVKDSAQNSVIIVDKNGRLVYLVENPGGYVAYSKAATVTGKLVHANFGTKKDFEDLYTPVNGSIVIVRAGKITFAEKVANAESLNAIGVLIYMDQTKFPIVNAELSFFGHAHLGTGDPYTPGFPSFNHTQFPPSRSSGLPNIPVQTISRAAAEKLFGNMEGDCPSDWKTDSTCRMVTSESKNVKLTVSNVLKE

| Binder | hCD71:HSA [1] | apical domain:HSA (CD71 apical domain [2]) | RLU [3] | RLU (CD71 apical domain [4]) |
| --- | --- | --- | --- | --- |
| SEQ ID NO 241 (designed binder, not shown: small tags and cut ends) MLPAPKNLVVSRVTEDSARLSWTAPDAAFDSFFIGYLEPQPPGEAIHLGVPGSERSYDLTGLKPGTEYNVTIQGVKGGFPSIPLFASFTT | 117 ratio | 190 ratio | 3.1e+06 RLU | 5.05e+06 RLU |
| SEQ ID NO 225 (designed binder, not shown: small tags and cut ends) MLPAPKNLVVSRVTEDSARLSWTAPDAAFDSFYIAYAEPRPDGEAILLQVPGSERSYDLTGLKPGTEYSVLIHGVKGGLLSSPLSASFTT | 239 ratio | 435 ratio | 4.06e+06 RLU | 7.38e+06 RLU |
| SEQ ID NO 240 (designed binder, not shown: small tags and cut ends) MLPAPKNLVVSRVTEDSARLSWTAPDAAFDSFYIAYAEPRPDGEAISLSVPGSERSYDLTGLKPGTEYSVLIHGVKGGLLSSPLHAKFTT | 33.9 ratio | 292 ratio | 610000 RLU | 5.26e+06 RLU |
| SEQ ID NO 215 (designed binder, not shown: small tags and cut ends) MLPAPKNLVVSRVTEDSARLSWTAPDAAFDSFYIAYAEPRPDGEAIVLWVPGSERSYDLTGLKPGTEYSVLIHGVKGGLLSSPLIAEFTT | 90.4 ratio | 261 ratio | 2.02e+06 RLU | 5.84e+06 RLU |
| SEQ ID NO 229 (designed binder, not shown: small tags and cut ends) MLPAPKNLVVSRVTEDSARLSWTAPDAAFDSFYIAYAEPRPDGEAIQLLVPGSERSYDLTGLKPGTEYSVLIHGVKGGLLSSPLVAHFTT | 93.4 ratio | 374 ratio | 1.44e+06 RLU | 5.77e+06 RLU |
| SEQ ID NO 230 (designed binder, not shown: small tags and cut ends) MLPAPKNLVVSRVTEDSARLSWTAPDAAFDSFYIAYAEPRPDGEAIWLLVPGSERSYDLTGLKPGTEYSVLIHGVKGGLLSSPLVAFFTT | 34.4 ratio | 191 ratio | 1.1e+06 RLU | 6.11e+06 RLU |
| SEQ ID NO 228 (designed binder, not shown: small tags and cut ends) MLPAPKNLVVSRVTEDSARLSWTAPDAAFDSFYIAYAEPRPDGEAIVLRVPGSERSYDLTGLKPGTEYSVLIHGVKGGLLSSPLAASFTT | 131 ratio | 238 ratio | 3.88e+06 RLU | 7.04e+06 RLU |
| SEQ ID NO 211 (designed binder, not shown: small tags and cut ends) MLPAPKNLVVSRVTEDSARLSWTAPDAAFDSFYIAYAEPRPDGEAIQLHVPGSERSYDLTGLKPGTEYSVLIHGVKGGLLSSPLVAIFTT | 50.6 ratio | 363 ratio | 660000 RLU | 4.74e+06 RLU |
| SEQ ID NO 212 (designed binder, not shown: small tags and cut ends) MLPAPKNLVVSRVTEDSARLSWTAPDAAFDSFYIAYAEPRPDGEAIWLAVPGSERSYDLTGLKPGTEYSVLIHGVKGGLLSSPLHAQFTT | 26.8 ratio | 292 ratio | 467000 RLU | 5.09e+06 RLU |
| SEQ ID NO 219 (designed binder, not shown: small tags and cut ends) MLPAPKNLVVSRVTEDSARLSWTAPDAAFDSFYIAYAEPRPDGEAISLKVPGSERSYDLTGLKPGTEYSVLIHGVKGGLLSSPLEAIFTT | 38.8 ratio | 418 ratio | 460000 RLU | 4.95e+06 RLU |
| SEQ ID NO 224 (designed binder, not shown: small tags and cut ends) MLPAPKNLVVSRVTEDSARLSWTAPDAAFDSFYIAYAEPRPDGEAILLRVPGSERSYDLTGLKPGTEYSVLIHGVKGGLLSSPLVAEFTT | 136 ratio | 261 ratio | 3.55e+06 RLU | 6.82e+06 RLU |
| SEQ ID NO 206 (designed binder, not shown: small tags and cut ends) MLPAPKNLVVSRVTEDSARLSWTAPDAAFDSFYIAYAEPRPDGEAIGLDVPGSERSYDLTGLKPGTEYSVLIHGVKGGLLSSPLSAIFTT | 59.1 ratio | 373 ratio | 828000 RLU | 5.22e+06 RLU |
| SEQ ID NO 233 (designed binder, not shown: small tags and cut ends) MLPAPKNLVVSRVTEDSARLSWTAPDAAFDSFYIAYAEPRPDGEAIQLFVPGSERSYDLTGLKPGTEYSVLIHGVKGGLLSSPLKAYFTT | 35.1 ratio | 255 ratio | 772000 RLU | 5.61e+06 RLU |
| SEQ ID NO 227 (designed binder, not shown: small tags and cut ends) MLPAPKNLVVSRVTEDSARLSWTAPDAAFDSFYIAYAEPRPDGEAIGLRVPGSERSYDLTGLKPGTEYSVLIHGVKGGLLSSPLSAIFTT | 22.5 ratio | 177 ratio | 635000 RLU | 4.99e+06 RLU |
| SEQ ID NO 214 (designed binder, not shown: small tags and cut ends) MLPAPKNLVVSRVTEDSARLSWTAPDAAFDSFYIAYAEPRPDGEAIGLQVPGSERSYDLTGLKPGTEYSVLIHGVKGGLLSSPLCAEFTT | 13 ratio | 143 ratio | 393000 RLU | 4.3e+06 RLU |
| SEQ ID NO 226 (designed binder, not shown: small tags and cut ends) MLPAPKNLVVSRVTEDSARLSWTAPDAAFDSFYIAYAEPRPDGEAIGLHVPGSERSYDLTGLKPGTEYSVLIHGVKGGLLSSPLTASFTT | 135 ratio | 400 ratio | 2.15e+06 RLU | 6.38e+06 RLU |
| SEQ ID NO 209 (designed binder, not shown: small tags and cut ends, also called ABX1198) MLPAPKNLVVSRVTEDSARLSWTAPDAAFDSFYIAYAEPRPDGEAILLQVPGSCRSYDLTGLKPGTEYSVLIHGVKGGLLSSPLTAIFTT | 348 ratio | 466 ratio | 6.2e+06 RLU | 8.3e+06 RLU |
| SEQ ID NO 217 (designed binder, not shown: small tags and cut ends) MLPAPKNLVVSRVTEDSARLSWTAPDAAFDSFYIAYAEPRPDGEAIILEVPGSERSYDLTGLKPGTEYSVLIHGVKGGLLSSPLRAVFTT | 214 ratio | 420 ratio | 3.48e+06 RLU | 6.81e+06 RLU |
| SEQ ID NO 242 (designed binder, not shown: small tags and cut ends) MLPAPKNLVVSRVTEDSARLSWTAPDAAFDSFYIAYAEPRPDGEAIQLLVPGSERSYDLTGLKPGTEYSVLIHGVKGGLLSSPLYAAFTT | 31.9 ratio | 241 ratio | 648000 RLU | 4.9e+06 RLU |
| SEQ ID NO 239 (designed binder, not shown: small tags and cut ends) MLPAPKNLVVSRVTEDSARLSWTAPDAAFDSFYIAYAEPRPDGEAIQLVVPGSERSYDLTGLKPGTEYSVLIHGVKGGLLSSPLYAIFTT | 26.5 ratio | 221 ratio | 559000 RLU | 4.65e+06 RLU |
| SEQ ID NO 218 (designed binder, not shown: small tags and cut ends) MLPAPKNLVVSRVTEDSARLSWTAPDAAFDSFYIAYAEPRPDGEAIHLVVPGSERSYDLTGLKPGTEYSVLIHGVKGGLLSSPLSAIFTT | 10.2 ratio | 202 ratio | 144000 RLU | 2.85e+06 RLU |
| SEQ ID NO 236 (designed binder, not shown: small tags and cut ends) MLPAPKNLVVSRVTEDSARLSWTAPDAAFDSFYIAYAEPRPDGEAILLQVPGSERSYDLTGLKPGTEYSVLIHGVKGGLLSSPLDAEFTT | 262 ratio | 477 ratio | 4.07e+06 RLU | 7.41e+06 RLU |
| SEQ ID NO 207 (designed binder, not shown: small tags and cut ends) MLPAPKNLVVSRVTEDSARLSWTAPDAAFDSFYIAYAEPRPDGEAIHLSVPGSERSYDLTGLKPGTEYSVLIHGVKGGLLSSPLAAYFTT | 22.6 ratio | 58.8 ratio | 2.74e+06 RLU | 7.11e+06 RLU |
| SEQ ID NO 234 (designed binder, not shown: small tags and cut ends) MLPAPKNLVVSRVTEDSARLSWTAPDAAFDSFYIAYAEPRPDGEAIVLVVPGSERSYDLTGLKPGTEYSVLIHGVKGGLLSSPLSAIFTT | 216 ratio | 338 ratio | 4.51e+06 RLU | 7.04e+06 RLU |
| SEQ ID NO 237 (designed binder, not shown: small tags and cut ends) MLPAPKNLVVSRVTEDSARLSWTAPDAAFDSFYIAYAEPRPDGEAIVLAVPGSERSYDLTGLKPGTEYSVLIHGVKGGLLSSPLYASFTT | 165 ratio | 253 ratio | 4.58e+06 RLU | 7.01e+06 RLU |
